Assay results published in patent US10215752B2, “Nanotube array for optical detection of protein-protein interactions” (MASSACHUSETTS INSTITUTE OF TECHNOLOGY, priority 2010, dated 2019).

Molecular target: p16 (Homo sapiens, UniProt Q8N726)
Assay: Protein-protein interaction on SWNT/CHI array, Förster distance calculation
Conditions: distance change after analyte protein p16, Förster equation
Method: Reaction mixtures for cell-free protein expression were added to each array wells. The fluorescent intensities of each SWNT/CHI well were taken to track the intensity changes. To initiate protein synthesis, 1 μl PCR-amplified DNAs were added to each well a humidified chamber at 37° C. for 2 hours. The arrays were washed three times for 10 min each with PBS buffer (pH 7.4, 100 mM) at RT and then PL spectra were taken. To analyze protein-protein interaction on SWNT/XHI array, anti-Histag antibody or cell-free expressed protein mixtures were added to each well and then PL spectra were taken to compare the intensity change.
Near-infrared photoluminescence spectra were acquired using 785 nm excitation and an Acton SP-150 spectrograph coupled to a Princeton instruments OMA V InGaAs detector or with Kaiser Holospec f/1.8 Imaging Spectrograph (Kaiser Optical).

p16, sequence (Q8N726 with tags, fused parts or gaps): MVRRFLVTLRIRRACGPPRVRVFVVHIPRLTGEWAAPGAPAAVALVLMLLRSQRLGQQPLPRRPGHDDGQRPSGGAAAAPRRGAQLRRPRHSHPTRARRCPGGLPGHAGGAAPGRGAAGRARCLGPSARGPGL

B1: CDK4: human derived protein (ExPASy P11802), on-chip cell-free expressed with His-tag (protein, UniProt P11802 2-303, looked up)
Cyclin-dependent kinase 4: ATSRYEPVAEIGVGAYGTVYKARDPHSGHFVALKSVRVPNGGGGGGGLPISTVREVALLRRLEAFEHPNVVRLMDVCATSRTDREIKVTLVFEHVDQDLRTYLDKAPPPGLPAETIKDLMRQFLRGLDFLHANCIVHRDLKPENILVTSGGTVKLADFGLARIYSYQMALTPVVVTLWYRAPEVLLQSTYATPVDMWSVGCIFAEMFRRKPLFCGNSEADQLGKIFDLIGLPPEDDWPRDVSLPRGAFPPRGPRPVQSVVPEMEESGAQLLLEMLTFNPHKRISAFRALQHSYLHKDEGNPE
modifications: His-tag
In the case of B1, the Δd2 is reported as 0.06338.
